Where two headings read alike, the source gives them in different places. Values belong to the substance of their own block, whether it stands above or below them.
What was measured:
[1] = target: Fc-γ receptors expressed on the immune cells; assay: cell-based or functional assay
[2] = target: Fc-γ receptors expressed on the immune cells; assay: cell-based or functional assay; remark: listed apart in the source
[3] = target: mouse PD-L1 on CD3+ T lymphocytes (mouse) (UniProt Q9EP73); assay: receptor occupancy on blood CD3+ T cells by flow cytometry, mice dosed with 1.5 mg/mouse, day 10
mouse PD-L1 on CD3+ T lymphocytes (mouse), sequence (Q9EP73 19-290): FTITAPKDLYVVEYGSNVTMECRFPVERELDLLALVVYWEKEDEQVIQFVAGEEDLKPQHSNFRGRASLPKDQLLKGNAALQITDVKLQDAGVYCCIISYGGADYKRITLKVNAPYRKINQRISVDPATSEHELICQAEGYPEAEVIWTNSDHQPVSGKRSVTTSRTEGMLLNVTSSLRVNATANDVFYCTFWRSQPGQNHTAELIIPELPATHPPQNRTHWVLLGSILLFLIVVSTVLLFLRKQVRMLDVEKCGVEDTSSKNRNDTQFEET

[4] = target: mouse PD-L1 on CD3+ T lymphocytes (mouse) (UniProt Q9EP73); assay: receptor occupancy on blood CD3+ T cells by flow cytometry, correlated with serum antibody concentration after a single injection in mice

EC50 (ADCC, Raji/CD-20 target cells, E/T 25:1) [1]: 2.1 ng/mL
Target cell lysis (ADCC, Raji/CD-20 target cells, E/T 25:1) [1]: 53.5%
EC50 (ADCC, Raji/CD-20 target cells, E/T 25:1) [2]: 1.9 ng/mL
Target cell lysis (ADCC, Raji/CD-20 target cells, E/T 25:1) [2]: 43.6%
Target cell lysis (ADCC, Raji/CD-20 target cells, PBMC effectors, E/T 25:1) [2]: 48.8%
Substance: Rituximab (antibody)

receptor occupancy [3]: > 60%
serum antibody concentration above which complete target occupancy was achieved [4]: 1 nM
Substance: rat anti-mouse PD-L1 monoclonal antibody (clone 10F.9G2, BioXCell)

EC50 (ADCC, CHO-K1/PD-L1 target cells, E/T 25:1; no dose response curve) [2]: 9.5 ng/mL
Target cell lysis (ADCC, CHO-K1/PD-L1 target cells, E/T 25:1) [2]: 1.4%
Substance: biosimilar of atezolizumab (antibody)

Source: patent publication US20240052038A1
